How the values were obtained:
Assay in all cases: ProtoArray, G9a array SNR minus GST array SNR
[1] = target: FTH1 (hit 109), G9a-methylated (human) (UniProt P02794)
[2] = target: RTN1, G9a-methylated (human) (UniProt Q16799)
[3] = target: GPX5, G9a-methylated (human) (UniProt O75715)
[4] = target: C10orf83, G9a-methylated (human) (UniProt Q8NDC4)
[5] = target: SERPINB2, G9a-methylated (human) (UniProt P05120)
[6] = target: ZRANB1, G9a-methylated (human) (UniProt Q9UGI0)
[7] = target: BHMT, G9a-methylated (human) (UniProt Q93088)
[8] = target: STK17B, G9a-methylated (human) (UniProt O94768)
STK17B, G9a-methylated (human), sequence (O94768 whole entry): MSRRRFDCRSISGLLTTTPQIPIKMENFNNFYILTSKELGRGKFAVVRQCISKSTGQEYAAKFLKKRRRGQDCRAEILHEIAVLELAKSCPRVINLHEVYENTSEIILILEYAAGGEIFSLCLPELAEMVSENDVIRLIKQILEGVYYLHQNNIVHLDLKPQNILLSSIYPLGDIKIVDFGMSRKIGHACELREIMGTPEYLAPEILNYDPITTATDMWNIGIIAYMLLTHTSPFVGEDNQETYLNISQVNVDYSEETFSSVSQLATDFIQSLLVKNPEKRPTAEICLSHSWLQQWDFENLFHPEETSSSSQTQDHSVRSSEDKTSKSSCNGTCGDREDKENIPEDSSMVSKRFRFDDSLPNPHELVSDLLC

[9] = target: FTH1 (hit 104), G9a-methylated (human) (UniProt P02794)
FTH1 (hit 104), G9a-methylated (human), sequence (P02794 whole entry): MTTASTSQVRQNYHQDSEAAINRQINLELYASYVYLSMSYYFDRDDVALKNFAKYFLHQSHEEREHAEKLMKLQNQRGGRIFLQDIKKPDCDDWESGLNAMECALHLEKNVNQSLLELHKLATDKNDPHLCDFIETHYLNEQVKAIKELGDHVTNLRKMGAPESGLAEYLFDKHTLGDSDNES

[10] = target: CNTD1, G9a-methylated (human) (UniProt Q8N815)
CNTD1, G9a-methylated (human), sequence (Q8N815 whole entry): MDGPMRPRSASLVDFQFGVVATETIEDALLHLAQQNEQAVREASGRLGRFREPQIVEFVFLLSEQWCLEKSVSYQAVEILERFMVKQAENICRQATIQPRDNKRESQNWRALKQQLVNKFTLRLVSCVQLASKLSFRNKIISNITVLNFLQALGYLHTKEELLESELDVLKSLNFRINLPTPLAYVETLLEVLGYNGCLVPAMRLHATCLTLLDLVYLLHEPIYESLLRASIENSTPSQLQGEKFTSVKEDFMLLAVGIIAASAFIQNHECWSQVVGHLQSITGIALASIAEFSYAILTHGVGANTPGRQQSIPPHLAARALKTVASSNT

[11] = target: BLCAP, G9a-methylated (human) (UniProt P62952)
[12] = target: GNPTAB, G9a-methylated (human) (UniProt Q3T906)
[13] = target: LYPLAL1, G9a-methylated (human) (UniProt Q5VWZ2)
LYPLAL1, G9a-methylated (human), sequence (Q5VWZ2 whole entry): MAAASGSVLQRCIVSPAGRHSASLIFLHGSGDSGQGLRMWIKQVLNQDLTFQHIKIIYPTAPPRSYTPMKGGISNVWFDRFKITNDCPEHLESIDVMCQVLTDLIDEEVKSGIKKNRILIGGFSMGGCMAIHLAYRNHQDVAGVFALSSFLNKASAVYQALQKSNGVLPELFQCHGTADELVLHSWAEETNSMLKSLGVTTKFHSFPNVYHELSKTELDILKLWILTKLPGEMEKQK

[14] = target: PAEP, G9a-methylated (human) (UniProt P09466)
[15] = target: UBE2S, G9a-methylated (human) (UniProt Q16763)
[16] = target: CDK5RAP3, G9a-methylated (human) (UniProt Q96JB5)
CDK5RAP3, G9a-methylated (human), sequence (Q96JB5 whole entry): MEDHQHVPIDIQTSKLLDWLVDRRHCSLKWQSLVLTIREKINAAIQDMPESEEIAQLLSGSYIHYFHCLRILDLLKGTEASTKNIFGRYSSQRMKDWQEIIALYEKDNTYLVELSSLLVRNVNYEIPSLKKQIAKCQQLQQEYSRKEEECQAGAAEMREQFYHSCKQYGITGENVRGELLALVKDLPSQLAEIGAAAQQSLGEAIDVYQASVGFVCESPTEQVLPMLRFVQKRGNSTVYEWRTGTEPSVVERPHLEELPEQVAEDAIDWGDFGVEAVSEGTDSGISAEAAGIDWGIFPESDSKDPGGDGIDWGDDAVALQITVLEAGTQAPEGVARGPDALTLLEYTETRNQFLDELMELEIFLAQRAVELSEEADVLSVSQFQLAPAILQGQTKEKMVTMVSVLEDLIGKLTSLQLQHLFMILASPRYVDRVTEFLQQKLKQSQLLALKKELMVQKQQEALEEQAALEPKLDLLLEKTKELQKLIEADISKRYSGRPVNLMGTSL

[17] = target: TMEM97, G9a-methylated (human) (UniProt Q5BJF2)
[18] = target: ZNF695, G9a-methylated (human) (UniProt Q8IW36)
[19] = target: PHF20L1, G9a-methylated (human) (UniProt A8MW92)
PHF20L1, G9a-methylated (human), sequence (A8MW92 other isoform, or with tags, fused parts or gaps limits assumed): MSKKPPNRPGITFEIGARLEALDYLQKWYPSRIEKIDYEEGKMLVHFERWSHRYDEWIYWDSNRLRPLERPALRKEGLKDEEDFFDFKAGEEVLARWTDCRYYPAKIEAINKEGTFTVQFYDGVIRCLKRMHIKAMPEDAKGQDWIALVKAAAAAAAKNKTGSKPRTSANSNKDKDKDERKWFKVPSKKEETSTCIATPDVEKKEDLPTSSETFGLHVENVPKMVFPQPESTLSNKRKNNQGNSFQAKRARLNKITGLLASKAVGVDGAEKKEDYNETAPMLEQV

[20] = target: RAB7B, G9a-methylated (human) (UniProt Q96AH8)
[21] = target: C12orf23, G9a-methylated (human) (UniProt Q8WUH6)
[22] = target: TTC27, G9a-methylated (human) (UniProt Q6P3X3)
[23] = target: ZBP1, G9a-methylated (human) (UniProt Q9H171)
ZBP1, G9a-methylated (human), sequence (Q9H171 whole entry): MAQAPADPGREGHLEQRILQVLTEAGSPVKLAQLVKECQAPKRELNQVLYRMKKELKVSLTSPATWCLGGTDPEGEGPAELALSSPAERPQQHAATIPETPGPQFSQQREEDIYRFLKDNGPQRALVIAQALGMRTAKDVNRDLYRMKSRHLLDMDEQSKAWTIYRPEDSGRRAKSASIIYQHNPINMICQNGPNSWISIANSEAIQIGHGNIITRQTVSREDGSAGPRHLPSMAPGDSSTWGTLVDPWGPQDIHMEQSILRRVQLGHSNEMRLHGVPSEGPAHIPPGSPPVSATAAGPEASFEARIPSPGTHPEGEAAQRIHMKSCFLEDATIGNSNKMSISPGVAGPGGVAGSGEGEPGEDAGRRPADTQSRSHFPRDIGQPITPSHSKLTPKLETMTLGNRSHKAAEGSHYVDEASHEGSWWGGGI

[24] = target: VPS29, G9a-methylated (human) (UniProt Q9UBQ0)
[25] = target: SMYD3, G9a-methylated (human) (UniProt Q9H7B4)
[26] = target: TCTA, G9a-methylated (human) (UniProt P57738)
[27] = target: HPCAL4, G9a-methylated (human) (UniProt Q9UM19)
HPCAL4, G9a-methylated (human), sequence (Q9UM19 whole entry): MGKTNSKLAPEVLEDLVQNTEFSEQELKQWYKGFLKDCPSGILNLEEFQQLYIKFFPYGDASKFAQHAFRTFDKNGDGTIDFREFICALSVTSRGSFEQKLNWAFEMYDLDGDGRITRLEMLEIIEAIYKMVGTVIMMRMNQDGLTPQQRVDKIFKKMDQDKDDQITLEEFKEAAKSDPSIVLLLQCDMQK

[28] = target: KCTD7, G9a-methylated (human) (UniProt Q96MP8)
KCTD7, G9a-methylated (human), sequence (Q96MP8 whole entry): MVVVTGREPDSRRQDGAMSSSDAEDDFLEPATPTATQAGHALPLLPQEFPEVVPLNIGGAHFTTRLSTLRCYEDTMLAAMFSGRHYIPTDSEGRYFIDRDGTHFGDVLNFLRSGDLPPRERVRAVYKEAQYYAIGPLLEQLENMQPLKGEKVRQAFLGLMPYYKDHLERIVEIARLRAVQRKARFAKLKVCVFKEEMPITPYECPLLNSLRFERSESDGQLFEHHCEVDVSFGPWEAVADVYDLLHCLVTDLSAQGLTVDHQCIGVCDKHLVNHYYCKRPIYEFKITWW

[29] = target: CLDN15, G9a-methylated (human) (UniProt P56746)
[30] = target: UBE2D2, G9a-methylated (human) (UniProt P62837)
UBE2D2, G9a-methylated (human), sequence (P62837 whole entry): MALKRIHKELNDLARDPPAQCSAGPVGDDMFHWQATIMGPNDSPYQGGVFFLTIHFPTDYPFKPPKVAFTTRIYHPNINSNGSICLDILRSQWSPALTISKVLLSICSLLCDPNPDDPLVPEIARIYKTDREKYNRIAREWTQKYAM

[31] = target: DNTT, G9a-methylated (human) (UniProt P04053)
[32] = target: CTSZ, G9a-methylated (human) (UniProt Q9UBR2)
[33] = target: KIFC1, G9a-methylated (human) (UniProt Q9BW19)
[34] = target: SEC22B, G9a-methylated (human) (UniProt O75396)
[35] = target: TGDS, G9a-methylated (human) (UniProt O95455)
[36] = target: CDKL5, G9a-methylated (human) (UniProt O76039)
CDKL5, G9a-methylated (human), sequence (O76039 other isoform, or with tags, fused parts or gaps limits assumed): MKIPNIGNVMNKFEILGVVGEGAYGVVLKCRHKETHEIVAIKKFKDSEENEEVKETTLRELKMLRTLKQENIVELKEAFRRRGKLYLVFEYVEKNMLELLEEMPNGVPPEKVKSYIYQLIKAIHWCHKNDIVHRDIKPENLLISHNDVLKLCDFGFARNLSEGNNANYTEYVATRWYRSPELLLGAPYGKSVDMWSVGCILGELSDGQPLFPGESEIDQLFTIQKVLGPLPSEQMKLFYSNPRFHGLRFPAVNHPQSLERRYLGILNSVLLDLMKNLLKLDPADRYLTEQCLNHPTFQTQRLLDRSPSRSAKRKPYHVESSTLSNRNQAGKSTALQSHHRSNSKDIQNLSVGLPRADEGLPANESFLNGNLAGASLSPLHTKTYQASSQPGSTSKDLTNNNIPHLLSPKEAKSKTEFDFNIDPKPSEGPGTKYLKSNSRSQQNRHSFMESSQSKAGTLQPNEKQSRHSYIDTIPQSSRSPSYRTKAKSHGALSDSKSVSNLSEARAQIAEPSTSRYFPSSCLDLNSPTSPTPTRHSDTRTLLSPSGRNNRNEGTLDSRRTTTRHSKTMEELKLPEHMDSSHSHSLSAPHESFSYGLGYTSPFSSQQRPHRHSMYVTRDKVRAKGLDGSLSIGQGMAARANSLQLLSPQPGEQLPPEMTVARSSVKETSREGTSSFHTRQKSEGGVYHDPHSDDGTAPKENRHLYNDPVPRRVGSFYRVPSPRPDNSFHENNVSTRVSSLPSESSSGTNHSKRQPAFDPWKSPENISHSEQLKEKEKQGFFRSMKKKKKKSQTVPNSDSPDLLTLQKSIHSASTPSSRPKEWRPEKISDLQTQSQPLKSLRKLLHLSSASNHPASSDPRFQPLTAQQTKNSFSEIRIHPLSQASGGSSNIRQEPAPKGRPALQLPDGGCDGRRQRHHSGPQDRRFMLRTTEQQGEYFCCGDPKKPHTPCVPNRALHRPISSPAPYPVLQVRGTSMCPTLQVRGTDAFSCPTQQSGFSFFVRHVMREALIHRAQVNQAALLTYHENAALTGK

[37] = target: SSR4, G9a-methylated (human) (UniProt P51571)
[38] = target: DIRAS1, G9a-methylated (human) (UniProt O95057)
DIRAS1, G9a-methylated (human), sequence (O95057 whole entry): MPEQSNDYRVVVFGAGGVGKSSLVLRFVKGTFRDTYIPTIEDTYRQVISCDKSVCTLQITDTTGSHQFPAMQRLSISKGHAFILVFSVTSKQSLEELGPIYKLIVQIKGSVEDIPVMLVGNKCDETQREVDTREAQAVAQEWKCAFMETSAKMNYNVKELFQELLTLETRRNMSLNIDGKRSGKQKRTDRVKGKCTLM

[39] = target: CALN1, G9a-methylated (human) (UniProt Q9BXU9)
[40] = target: GHRL, G9a-methylated (human) (UniProt Q9UBU3)
GHRL, G9a-methylated (human), sequence (Q9UBU3 24-117 limits assumed): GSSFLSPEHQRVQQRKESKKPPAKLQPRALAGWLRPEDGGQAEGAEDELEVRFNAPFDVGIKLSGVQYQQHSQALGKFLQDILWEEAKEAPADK

C10orf83, G9a-methylated (human), sequence (Q8NDC4 whole entry): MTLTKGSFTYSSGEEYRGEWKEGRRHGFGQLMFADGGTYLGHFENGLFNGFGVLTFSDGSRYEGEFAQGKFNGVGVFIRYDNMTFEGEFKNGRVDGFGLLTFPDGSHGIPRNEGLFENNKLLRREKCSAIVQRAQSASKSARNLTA
RTN1, G9a-methylated (human), sequence (Q16799 other isoform, or with tags, fused parts or gaps limits assumed): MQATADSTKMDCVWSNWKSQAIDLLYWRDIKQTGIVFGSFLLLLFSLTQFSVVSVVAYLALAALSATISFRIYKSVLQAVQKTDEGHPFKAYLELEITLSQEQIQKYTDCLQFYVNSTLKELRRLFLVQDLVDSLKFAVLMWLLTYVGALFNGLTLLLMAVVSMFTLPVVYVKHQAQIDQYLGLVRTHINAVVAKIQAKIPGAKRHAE
FTH1 (hit 109), G9a-methylated (human), sequence (P02794 whole entry): as the sequence (P02794 whole entry) above

3× Flag-3×MBT (designed binder)
G9a-GST [1]: 37.9 | G9a-GST [2]: 13.8 | G9a-GST [3]: 25.6 | G9a-GST [4]: 14.6 | G9a-GST [5]: 17.3 | G9a-GST [6]: 13.6 | G9a-GST [7]: 15.2 | G9a-GST [8]: 13.8 | G9a-GST [9]: 31.2 | G9a-GST [10]: 12.2 | G9a-GST [11]: 25.5 | G9a-GST [12]: 15.3 | G9a-GST [13]: 15.6 | G9a-GST [14]: 16.5 | G9a-GST [15]: 24.7 | G9a-GST [16]: 14.1 | G9a-GST [17]: 22.8 | G9a-GST [18]: 18.8 | G9a-GST [19]: 20.4 | G9a-GST [20]: 13 | G9a-GST [21]: 12.2 | G9a-GST [22]: 20.2 | G9a-GST [23]: 14 | G9a-GST [24]: 15.5 | G9a-GST [25]: 16.3 | G9a-GST [26]: 15.2 | G9a-GST [27]: 12.3 | G9a-GST [28]: 13.7 | G9a-GST [29]: 25.3 | G9a-GST [30]: 37.6 | G9a-GST [31]: 49.5 | G9a-GST [32]: 12.3 | G9a-GST [33]: 62.4 | G9a-GST [34]: 13.4 | G9a-GST [35]: 12.4 | G9a-GST [36]: 18.3 | G9a-GST [37]: 13 | G9a-GST [38]: 28.2 | G9a-GST [39]: 18.6 | G9a-GST [40]: 24.1
